Laboratory results: publication PMC5548120

Target: T1, rat TRPV2 (transient receptor potential vanilloid 2), full-length, with a 1D4-tag (rat), Q9WUD2
T1 chain: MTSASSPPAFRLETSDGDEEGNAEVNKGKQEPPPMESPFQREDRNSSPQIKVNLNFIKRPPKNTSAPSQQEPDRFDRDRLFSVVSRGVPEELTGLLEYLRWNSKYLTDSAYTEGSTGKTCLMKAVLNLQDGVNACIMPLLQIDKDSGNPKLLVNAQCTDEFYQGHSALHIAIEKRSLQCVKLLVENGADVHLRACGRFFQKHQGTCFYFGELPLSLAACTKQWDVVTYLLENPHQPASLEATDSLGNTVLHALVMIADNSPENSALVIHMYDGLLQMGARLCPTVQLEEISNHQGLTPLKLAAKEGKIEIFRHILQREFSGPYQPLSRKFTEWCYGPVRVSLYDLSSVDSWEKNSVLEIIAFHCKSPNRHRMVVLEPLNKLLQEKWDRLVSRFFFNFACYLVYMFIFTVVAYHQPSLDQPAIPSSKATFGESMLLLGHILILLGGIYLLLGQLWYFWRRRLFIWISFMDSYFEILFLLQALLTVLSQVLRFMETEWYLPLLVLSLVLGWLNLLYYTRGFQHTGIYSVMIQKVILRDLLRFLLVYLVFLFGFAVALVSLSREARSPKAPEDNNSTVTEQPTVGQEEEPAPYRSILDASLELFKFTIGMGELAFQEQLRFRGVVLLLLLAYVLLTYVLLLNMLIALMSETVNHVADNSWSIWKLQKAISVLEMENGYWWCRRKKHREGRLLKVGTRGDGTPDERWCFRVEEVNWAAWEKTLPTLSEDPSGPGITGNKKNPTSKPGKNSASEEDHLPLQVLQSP
Assay: SEC + native gel or EMSA
Conditions: remark: other sources report otherwise

stoichiometry N: 4
B1: rat TRPV2 (transient receptor potential vanilloid 2), full-length, with a 1D4-tag, Q9WUD2 1-761 (natural protein)
chain: T1 chain
